Six molecules from publication PMC12884786, “Evolution of Multivalent Aptamer Corona for High‐Throughput Multiplexed Detection of Multiple Cancers” can be followed below.

Test in all cases: SPR; 5 mM Mg2+; SPR (Biacore 8K, CM5 chip, protein immobilized): DPBS with 5 mM Mg2+, 25 C; aptamer 0-1000 nM; pH not stated
Common to all, as to conditions: protein: commercial

The target in one data set is T1, serum amyloid A2 (human, UniProt P0DJI9 19-122).
T1 sequence: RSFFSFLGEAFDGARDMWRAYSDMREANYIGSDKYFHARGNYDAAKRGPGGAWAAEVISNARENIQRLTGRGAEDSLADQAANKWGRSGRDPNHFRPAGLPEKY

Data set [1] concerns the target complement factor H-related protein 1 (human, UniProt Q03591 19-330).
In data set [2] the target is complement C1q subcomponent subunit B (human, UniProt P02746 28-253).
Sequence of complement C1q subcomponent subunit B (P02746 28-253): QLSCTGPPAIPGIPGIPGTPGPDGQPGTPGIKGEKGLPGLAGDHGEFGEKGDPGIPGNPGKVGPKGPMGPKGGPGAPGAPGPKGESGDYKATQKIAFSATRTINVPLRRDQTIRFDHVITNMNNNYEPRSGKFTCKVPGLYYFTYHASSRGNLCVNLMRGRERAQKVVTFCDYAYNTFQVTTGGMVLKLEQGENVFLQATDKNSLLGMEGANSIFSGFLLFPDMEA
Data set [3] has as its target T2, vitamin K-dependent protein S (human, UniProt P07225 42-676).
T2 sequence: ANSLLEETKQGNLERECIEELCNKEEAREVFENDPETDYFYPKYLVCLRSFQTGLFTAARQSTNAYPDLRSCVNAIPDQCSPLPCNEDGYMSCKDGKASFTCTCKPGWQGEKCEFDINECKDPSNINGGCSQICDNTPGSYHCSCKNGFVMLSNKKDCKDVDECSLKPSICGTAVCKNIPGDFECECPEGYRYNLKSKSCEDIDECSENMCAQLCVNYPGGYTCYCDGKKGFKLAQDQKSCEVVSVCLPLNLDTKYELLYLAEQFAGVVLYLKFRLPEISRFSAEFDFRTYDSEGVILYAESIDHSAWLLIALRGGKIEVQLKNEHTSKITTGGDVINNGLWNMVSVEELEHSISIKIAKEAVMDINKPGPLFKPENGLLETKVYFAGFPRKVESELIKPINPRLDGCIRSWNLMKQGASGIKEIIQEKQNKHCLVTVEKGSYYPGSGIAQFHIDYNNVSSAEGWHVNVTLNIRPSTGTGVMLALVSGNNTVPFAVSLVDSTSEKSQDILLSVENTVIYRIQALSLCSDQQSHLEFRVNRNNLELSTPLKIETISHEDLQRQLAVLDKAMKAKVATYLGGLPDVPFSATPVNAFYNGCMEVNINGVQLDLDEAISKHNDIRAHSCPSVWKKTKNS

In the next data set the target is apolipoprotein C-III (human, UniProt P02656 21-99).
Sequence of apolipoprotein C-III (P02656 21-99): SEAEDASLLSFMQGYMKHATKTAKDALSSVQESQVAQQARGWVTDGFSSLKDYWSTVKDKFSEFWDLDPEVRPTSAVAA
For data set [4], the target named is T3, histidine-rich glycoprotein (human, UniProt P04196 19-525).
T3 sequence: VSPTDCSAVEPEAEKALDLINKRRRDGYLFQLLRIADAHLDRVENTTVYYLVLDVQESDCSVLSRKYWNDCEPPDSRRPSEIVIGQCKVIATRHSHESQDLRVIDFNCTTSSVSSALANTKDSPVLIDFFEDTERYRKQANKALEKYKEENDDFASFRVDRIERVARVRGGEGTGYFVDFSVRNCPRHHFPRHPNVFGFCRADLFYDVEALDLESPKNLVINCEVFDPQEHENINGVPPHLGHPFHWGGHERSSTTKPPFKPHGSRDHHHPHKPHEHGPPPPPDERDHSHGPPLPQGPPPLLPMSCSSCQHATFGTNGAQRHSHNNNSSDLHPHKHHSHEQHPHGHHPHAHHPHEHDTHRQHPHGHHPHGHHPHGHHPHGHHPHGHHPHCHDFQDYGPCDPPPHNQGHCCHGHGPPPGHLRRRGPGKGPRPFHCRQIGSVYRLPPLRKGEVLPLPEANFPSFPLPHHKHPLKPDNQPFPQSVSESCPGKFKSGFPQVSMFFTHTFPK

Sequence of complement factor H-related protein 1 (Q03591 19-330): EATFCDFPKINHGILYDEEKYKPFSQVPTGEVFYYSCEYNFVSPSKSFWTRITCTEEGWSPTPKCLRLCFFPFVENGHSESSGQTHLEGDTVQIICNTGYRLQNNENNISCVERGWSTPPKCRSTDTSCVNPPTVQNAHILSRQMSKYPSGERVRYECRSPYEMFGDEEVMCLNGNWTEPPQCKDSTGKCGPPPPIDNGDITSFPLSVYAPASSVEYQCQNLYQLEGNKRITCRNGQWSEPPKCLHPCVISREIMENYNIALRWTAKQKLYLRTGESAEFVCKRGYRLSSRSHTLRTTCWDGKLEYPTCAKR

B1: OV10 (ssDNA)
DNA: CAGCACCGTCAACTGAATGAGGTGGGAGGGAGGGGTTGACCTTGCGTGGTGATGCGATGGAGATGT
B1: the binding result in the data set with serum amyloid A2 is reported as “binds”.

B2: CRC5 (ssDNA)
DNA: CAGCACCGTCAACTGAATCCTGCGGGCGGGTGGGTGGTTGGATTCTTGGTGATGCGATGGAGATGT
In the case of B2, the binding result in data set [1] is recorded as “binds”.

B3: OV2 (ssDNA)
DNA: CAGCACCGTCAACTGAATGTGGGTGGGTGGGTGGTAAGTTGTGCCGACGTGATGCGATGGAGATGT
Turning to B3, the binding result in data set [2] was “binds”.

B4: CRC7 (ssDNA)
DNA: CAGCACCGTCAACTGAATCGGCGGGTGGGTGGGCGGAGATTTAACGTCGTGATGCGATGGAGATGT
Take B4: in data set [3], the binding result is recorded as “binds”.

B5: CRC4 (ssDNA)
DNA: CAGCACCGTCAACTGAATGCTGAGGGCGGGTGGGTGGCACATTCGATGGTGATGCGATGGAGATGT
For B5, the binding result with apolipoprotein C-III is given as “binds”.

B6: OV8 (ssDNA)
DNA: CAGCACCGTCAACTGAATGAGTCGCGGGTGGGTGGGTGGCCTTGCTCGGTGATGCGATGGAGATGT
For the molecule B6, the binding result in data set [4] was “binds”.
